This is an account of results in US20220396635A1 (UNIVERSIT T STUTTGART, published 2022).

In assay [1] the target is T1, EGFR (UniProt P00533 25-1210, limits assumed).
T1 construct: whole, on cells; the cell lines are human tumor lines
As to the kind of experiment: flow cytometry, serial dilution on T-47-D cells (EGFR-expressing), PE anti-His detection. On the procedure:
(§1) Binding analysis of scDb and scDb-scFv was performed by flow cytometry using tumor cell lines with different EGFR-expression levels (Table 7). Adherent cells were washed with PBS and shortly trypsinized at 37° C. Trypsin was quenched with FCS-containing medium and removed by centrifugation (500×g, 5 min.). 1×10⁵ target cells/well (FaDu, Lim1215, T-47-D and SKBR-3) were incubated with a serial dilution of scDb or scDb-scFv for 1 h at 4° C. After removing excess of recombinant protein by washing with PBA (PBS, 2% FBS, and 0.02% sodium azide), bound protein was detected using PE-conjugated anti-hexahistidyl tag mAb (Miltenyi Biotec). Fluorescence was measured using MACSquant Analyzer 10 (Miltenyi Biotec) and data were analyzed using FlowJo (Tree Star). Relative median fluorescence intensities (MFI) were calculated as followed: relative MFI=((MFIₛₐₘₚₗₑ-(MFIdetection-MFIcells))/MFIcells).
A general note: Flow cytometry measures light scatter and fluorescence of single cells or particles in a stream.

In assay [2] the target is T2, CD3 (UniProt P07766 23-207).
T2 construct: whole, on cells; on cells it stands in the TCR/CD3 complex; also called CD3 on Jurkat cells
As to the kind of experiment: flow cytometry, serial dilution on Jurkat cells (CD3-expressing), PE anti-His detection.

Assay [3] addresses T1, EGFR. As to the kind of experiment: flow cytometry, serial dilution on LIM1215 cells (EGFR-expressing), PE anti-His detection. The method, then:
as §1

The target in assay [4] is T1, EGFR. Briefly: flow cytometry, serial dilution on FaDu cells (EGFR-expressing), PE anti-His detection. The method, then:
as §1

Assay [5] has as its target T1, EGFR. As to the kind of experiment: cell-based or functional assay.
Assay [6] concerns the target T1, EGFR. Briefly: flow cytometry, serial dilution on SKBR-3 cells (EGFR-expressing), PE anti-His detection. On the procedure: as §1
Assay [7] has as its target T3, HER3 (UniProt P21860 20-1342, limits assumed).
T3 construct: whole, on cells; the cell lines are human tumor lines
Briefly: flow cytometry, serial dilution on MCF-7 cells (HER3-expressing), PE anti-human Fc detection. On the procedure:
(§2) Binding of trivalent, bispecific fusion proteins to HER3-expressing (LIM1215, MCF-7) and CD3-expressing (Jurkat) cell lines was analyzed by flow cytometry. 2×10⁵ cells/well were incubated with a serial dilution of trivalent, bispecific antibodies for 1 h at 4° C. followed by detection using a PE-conjugated anti-human Fc antibody (Jackson ImmunoResearch Laboratories Inc). […] Concerning binding to the CD3-expressing cell line Jurkat, the trivalent, bispecific antibodies in the (1-2)+1 and in the (2−1)+1 orientation bound with EC₅₀ values in the low nanomolar range.

Assay [8] concerns the target T2, CD3. As to the kind of experiment: flow cytometry, serial dilution on Jurkat cells (CD3-expressing), PE anti-human Fc detection. On the procedure:
as §2

Assay [9] concerns the target T3, HER3. As to the kind of experiment: flow cytometry, serial dilution on LIM1215 cells (HER3-expressing), PE anti-human Fc detection. On the procedure:
as §2

For assay [10], the target named is T3, HER3. As to the kind of experiment: cell-based or functional assay.

A word on the EC50: it is the concentration giving half of the maximal effect. Read a high EC50 as a less potent agent.

B1: scDbhu225xhuU3 (bispecific antibody)
chain: EVQLVESGGGLVQPGGSLRLSCAASGFSLTNYGVHWVRQAPGKGLEWLGVIWSGGNTDYNTPFTSRFTISRDNSKNTLYLQMNSLRAEDTAVYYCARALTYYDYEFAYWGQGTTVTVSSGGGGSDIQMTQSPSSLSASVGDRVTITCRASQDIRNYLNWYQQKPGKAPKLLIYYTSRLHSGVPSRFSGSGSGTDFTFTISSLQPEDIATYYCQQGNTLPWTFGQGTKLEIKRGGGGSGGGGSGGGGSQVQLVQSGAEVKKPGSSVKVSCKASGGTFSGYTMNWVRQAPGQGLEWMGLINPYKGVSTYNGKFKDRVTITADKSTSTAYMELSSLRSEDTAVYYCARSGYYGDSDWYFDVWGQGTLVTVSSGGGGSDIQLTQSPSFLSASVGDRVTITCRASQSIGTNIHWYQQKPGKAPKLLIKYASESISGVPSRFSGSGSGTEFTLTISSLQPEDFATYYCQQNNNWPTTFGAGTKLEIKRAAAGGSGGGGSGGGTGGGGSLHHHHHH
notes: the end number was counted from the printed lines; The His tag is part of the entry; also called bispecific scDb targeting CD3 and EGFR
B1: the concentration for a half-maximal effect (EC50) in the assay with EGFR [1] is 1.1 nM; with CD3 [2], 5.4 nM; with EGFR [3] it was 1.6 nM; with EGFR [4], 1.4 nM; in the assay with EGFR [6], 2.3 nM. The “EC50 of PBMC cytotoxicity on FaDu cells, E:T 10:1” value with EGFR [5] was above 10 nM. For the same molecule, the “EC50 of PBMC cytotoxicity on LIM1215 cells, E:T 10:1” value in the assay with EGFR [5] is above 10 nM. For the same molecule, in the assay with EGFR [5], the “EC50 of PBMC cytotoxicity on SKBR-3 cells, E:T 10:1” value was above 10 nM. In the assay with EGFR [5], the “EC50 of PBMC cytotoxicity on T-47-D cells, E:T 10:1” value was above 10 nM.

B2: scDb/scFv-Fc (1-1)+2, trivalent bispecific anti-HER3×anti-CD3 (bispecific antibody)
chain 1: QVQLQQSGPGLVKPSQTLSLTCAISGDSVSSNRAAWNWIRQSPSRGLEWLGRTYYRSKWYNDYAQSLKSRITINPDTPKNQFSLQLNSVTPEDTAVYYCARDGQLGLDALDIWGQGTMVTVSSGGGGSQAGLTQPPAVSVAPGQTASITCGRDNIGSRSVHWYQQKPGQAPVLVVYDDSDRPAGIPERFSGSNYENTATLTISRVEAGDEADYYCQVWGITSDHVVFGGGTKLTVLGGGGSGGGGSGGGGSQVQLQQSGPGLVKPSQTLSLTCAISGDSVSSNRAAWNWIRQSPSRGLEWLGRTYYRSKWYNDYAQSLKSRITINPDTPKNQFSLQLNSVTPEDTAVYYCARDGQLGLDALDIWGQGTMVTVSSGGGGSQAGLTQPPAVSVAPGQTASITCGRDNIGSRSVHWYQQKPGQAPVLVVYDDSDRPAGIPERFSGSNYENTATLTISRVEAGDEADYYCQVWGITSDHVVFGGGTKLTVLAAADKTHTCPPCPAPPVAGPSVFLFPPKPKDTLMISRTPEVTCVVVDVSHEDPEVKFNWYVDGVEVHNAKTKPREEQYNSTYRVVSVLTVLHQDWLNGKEYKCKVSNKGLPSSIEKTISKAKGQPREPQVCTLPPSRDELTKNQVSLSCAVKGFYPSDIAVEWESNGQPENNYKTTPPVLDSDGSFFLVSKLTVDKSRWQQGNVFSCSVMHEALHNHYTQKSLSLSPGK
chain 2: DIQMTQSPSSLSASVGDRVTITCRASQDIRNYLNWYQQKPGKAPKLLIYYTSRLHSGVPSRFSGSGSGTDFTFTISSLQPEDIATYYCQQGNTLPWTFGQGTKLEIKRGGGGSGGGGSGGGGSQVQLVQSGAEVKKPGSSVKVSCKASGGTFSGYTMNWVRQAPGQGLEWMGLINPYKGVSTYNGKFKDRVTITADKSTSTAYMELSSLRSEDTAVYYCARSGYYGDSDWYFDVWGQGTLVTVSSAAADKTHTCPPCPAPPVAGPSVFLFPPKPKDTLMISRTPEVTCVVVDVSHEDPEVKFNWYVDGVEVHNAKTKPREEQYNSTYRVVSVLTVLHQDWLNGKEYKCKVSNKGLPSSIEKTISKAKGQPREPQVYTLPPCRDELTKNQVSLWCLVKGFYPSDIAVEWESNGQPENNYKTTPPVLDSDGSFFLYSKLTVDKSRWQQGNVFSCSVMHEALHNHYTQKSLSLSPGK
notes: The scDb is monospecific for HER3; the CD3 site sits in the scFv arm; also called scDb3-43x3-43-Fc(hole)Δab + scFvhuU3-Fc(knob)Δab
In the case of B2, the EC50 stood at 0.4 nM with HER3 [7], 0.7 nM with CD3 [8] and 0.882 nM in the assay with HER3 [9]. The “EC50 of proliferation of CD4+ T-cells, MCF-7 co-culture” value in the assay with HER3 [10] amounted to 0.393 nM. Further, in the assay with HER3 [10], the “EC50 of proliferation of CD8+ T-cells, MCF-7 co-culture” value is 0.191 nM.

B3: scDbhu225xhuU3-scFvhu225 (bispecific antibody)
chain: EVQLVESGGGLVQPGGSLRLSCAASGFSLTNYGVHWVRQAPGKGLEWLGVIWSGGNTDYNTPFTSRFTISRDNSKNTLYLQMNSLRAEDTAVYYCARALTYYDYEFAYWGQGTTVTVSSGGGGSDIQMTQSPSSLSASVGDRVTITCRASQDIRNYLNWYQQKPGKAPKLLIYYTSRLHSGVPSRFSGSGSGTDFTFTISSLQPEDIATYYCQQGNTLPWTFGQGTKLEIKRGGGGSGGGGSGGGGSQVQLVQSGAEVKKPGSSVKVSCKASGGTFSGYTMNWVRQAPGQGLEWMGLINPYKGVSTYNGKFKDRVTITADKSTSTAYMELSSLRSEDTAVYYCARSGYYGDSDWYFDVWGQGTLVTVSSGGGGSDIQLTQSPSFLSASVGDRVTITCRASQSIGTNIHWYQQKPGKAPKLLIKYASESISGVPSRFSGSGSGTEFTLTISSLQPEDFATYYCQQNNNWPTTFGAGTKLEIKRAAAGGSGGGGSGGGTEVQLVESGGGLVQPGGSLRLSCAASGFSLTNYGVHWVRQAPGKGLEWLGVIWSGGNTDYNTPFTSRFTISRDNSKNTLYLQMNSLRAEDTAVYYCARALTYYDYEFAYWGQGTTVTVSSGGGGSGGGGSGGGGSDIQLTQSPSFLSASVGDRVTITCRASQSIGTNIHWYQQKPGKAPKLLIKYASESISGVPSRFSGSGSGTEFTLTISSLQPEDFATYYCQQNNNWPTTFGAGTKLEIKRSLHHHHHH
notes: the end number was counted from the printed lines; The His tag is part of the entry; also called scDb-scFv; trivalent, bispecific bisAb targeting EGFR and CD3
B3: the EC50 with EGFR [1] came out at 0.09 nM; with CD3 [2] it was 6.4 nM; with EGFR [3], 0.5 nM; in the assay with EGFR [4] it was 0.5 nM; with EGFR [6] it was 0.3 nM. For the same molecule, the “EC50 of PBMC cytotoxicity on FaDu cells, E:T 10:1” value with EGFR [5] worked out at 0.009 nM. Also, in the assay with EGFR [5], the “EC50 of PBMC cytotoxicity on LIM1215 cells, E:T 10:1” value was 0.007 nM. For the same molecule, in the assay with EGFR [5], the “EC50 of PBMC cytotoxicity on SKBR-3 cells, E:T 10:1” value stood at 0.002 nM. Moreover, the “EC50 of PBMC cytotoxicity on T-47-D cells, E:T 10:1” value with EGFR [5] amounted to 0.09 nM.
